Molecular target: T1, human cathepsin L (human)
T1 construct: cathepsin L, human, bought from Calbiochem; active enzyme used at 0.3 nM; source: bought: Calbiochem
Test: enzyme inhibition assay (residual activity on the fluorogenic substrate Z-Phe-Arg-MCA); cathepsin B or L (0.3 nM) incubated 5 min at 37°C with varied inhibitor in 100 mM sodium acetate pH 5.5, 2.5 mM DTT; substrate 0.01 mM; triplicate; Ki(app) by non linear regression (GraFit), Ki by Morrison's procedure
Settings: both partners purified

Ki: 5.66 nM
B1: Oryzacystatin-1 N-terminal deletion (NΔ) (natural protein)
chain: MSSDGGPVGNENDLHLVDLARFAVTEHNKKANSLLEFEKLVSVKQQVVAGTLYYFTIEVKEGDAKKLYEAKVWEKPWMDFKELQEFKPVDASANA
